Reference: patent publication US20250011456A1, “ANTIBODIES AGAINST CD14 AND USES THEREOF” (Villanelle Life Science Inc, priority 2023, published 2025)
Positions count from the first letter of the chain named. Where “and” joins values, the source holds several entries; their conditions need not be identical. Identical values can stand only once. One block for each molecule: values may come before it.

What was measured:
[1] = biological target: T1, human CD14 antigen (B294801, histidine tagged) (Homo sapiens, UniProt P08571); test: Biacore 8K kinetic and affinity test of antibodies without PTM sites (Example 9); assay type: binding; conditions: for Koff / kon (1:1 binding): Biacore 8K, analyte B294801 0.1953125-25 nM, capture conc. 1 μg/mL
T1 construct: His; purchased Shanghai BaiYing Biotechnology Co., Ltd B294801 (Batch number 20200518A22)
T1 sequence (P08571 20-345): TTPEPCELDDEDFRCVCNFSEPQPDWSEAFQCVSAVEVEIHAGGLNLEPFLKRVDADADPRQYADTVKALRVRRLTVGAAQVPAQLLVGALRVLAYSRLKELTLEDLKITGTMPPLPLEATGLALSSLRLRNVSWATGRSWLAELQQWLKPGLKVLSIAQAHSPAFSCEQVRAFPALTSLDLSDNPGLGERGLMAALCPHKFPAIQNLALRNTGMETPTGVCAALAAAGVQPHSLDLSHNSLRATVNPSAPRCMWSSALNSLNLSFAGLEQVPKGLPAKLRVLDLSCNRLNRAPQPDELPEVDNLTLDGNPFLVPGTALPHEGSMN
Experimental: Experimental reagents and consumables included cell culture fluid, electroporation buffer, CHO cells, 1 mL electroporation cuvette, Protein A chip (Cytiva, 29127556), various sizes of shake flasks, and various sizes of pipettes. Main instruments and equipment included a shaker (Taicang Huamei), centrifuge (Baiyang), ultrapure water system (Millipore), constant temperature incubator (BLUE PARD), electroporator, water bath, Biacore 8K (Cytiva), and ELISA system (Molecular Devices).
The antigen used for the binding affinity measurements is B294801. This antigen is a human CD14 antigen that is histidine tagged. D6DD3D001 is a mouse antibody, and MPDDAD001-MPDDAD005 are humanized antibodies. The antibodies are recombinant, human (hFc Tag). Selected parameters of the experimental samples are shown in Table 9-1, with MW referring to molecular weight in kDa.
The Biacore 8K platform was used to test the kinetic and affinity properties of the antibody, operating according to system instructions and indications.
Results of Affinity Detection. The affinity of the six antibodies was measured at saturation concentration. For the experiments, the analyte solution comprises the B294801 antigen with an analyte concentration of 0.1953125 nM, 0.390625 nM, 0.78125 nM, 1.5625 nM, 3.125 nM, 6.25 nM, 12.5 nM, and 25 nM. Change factor is described above.

[2] = test system: CD14 positive recurrent bladder cancer patient-derived xenograft (PDX); test: Anti-CD14 IgG1/IgG4 with or without cisplatin, tumor treatment in PDX mice (tumor length, width, volume, tumor weight; Example 6); assay type: in vivo; conditions: for Tumor Length / Tumor Volume / Tumor Width: IgG4 5 mg/kg i.v. (Ex. 2), PDX mice 1-6
Text: After removing the primary tumor tissue from the patient, the tissue was temporarily placed in a complete culture medium containing RPMI1640 (Gibco Roswell Park Memorial Institute 1640 Media)+PS (penicillin and streptomycin)+10% FBS (Fetal bovine serum). The tissue was then transported to a sterile operating room within an SPF-grade (Specific Pathogen Free) animal facility. The tumor tissue was cut to an appropriate size (5 millimeters (mm) in diameter). Severely immunodeficient NSG (NOD scid gamma mouse) mice were anesthetized using an isoflurane respirator. The tumor was transplanted subcutaneously into the right rib area through surgery. When the tumor volume reached 1 cm^3, it was passaged following the same procedure, and after expanding for three generations, the tumor became stable for use in formal experiments. During the experiment, passaging and expansion were performed as needed. When the tumor volume reached 100 mm^3, the mice were divided into groups according to the experimental requirements and treated with drugs.
The IgG4 tested is the original version of Atibuclimab.
Drug administration on the PDX mice was performed intravenously.

B2: MPDDAD001: D6DD3D014-derived antibody with PTM site removed; VL amino acid nos. 34, 35: DS (antibody, V domains shown)
VH: QLQLQESGPGLVKPSETLSLTCTVSGGSISSDSAWNWIRQPPGKGLEWIGYISYSGSTSYNPSLKSRVTISRDTSKNQFSLKLSSVTAADTAVYYCVRGLRFAYWGQGTLVTVSS
VL: DIQLTQSPSSLSASVGDRVTITCRASESVDSYVDSFLHWYQQKPGKAPKLLIYRASNLQSGVPSRFSGSGSRTDFTLTISSLQPEDVATYYCQQSNEDPYTFGQGTKLEIK
Koff [1]: 0.00633 s⁻¹
kon (1:1 binding) [1]: 847000 M⁻¹ s⁻¹

B4: MPDDAD002: D6DD3D014-derived antibody with PTM site removed; VL amino acid nos. 34, 35: SS (antibody, V domains shown)
VH: B2 VH
VL: B2 VL with D34S
Koff [1]: 0.00362 s⁻¹
kon (1:1 binding) [1]: 1.29e+06 M⁻¹ s⁻¹

B6: IgG4: The IgG4 tested is the original version of Atibuclimab (anti-CD14 antibody) (antibody, V domains shown)
VH: DVQLQQSGPGLVKPSQSLSLTCTVTGYSITSDSAWNWIRQFPGNRLEWMGYISYSGSTSYNPSLKSRISITRDTSKNQFFLQLNSVTTEDTATYYCVRGLRFAYWGQGTLVTVSS
VL: DIVLTQSPASLAVSLGQRATISCRASESVDSYVNSFLHWYQQKPGQPPKLLIYRASNLQSGIPARFSGSGSRTDFTLTINPVEADDVATYYCQQSNEDPYTFGGGTKLEIK
modifications: IgG4 constant regions
Tumor Length ([2]; Day 0, 5 mg/kg): 6.27 mm and 8.76 mm and 6.59 mm and 7.42 mm and 6.33 mm and 6.02 mm
Tumor Volume ([2]; Day 0, 5 mg/kg): 71.87 mm^3 and 99.55 mm^3 and 90.05 mm^3 and 93.23 mm^3 and 102.04 mm^3 and 77.19 mm^3
Tumor Width ([2]; Day 0, 5 mg/kg): 4.68 mm and 4.66 mm and 5.11 mm and 4.9 mm and 5.55 mm and 4.95 mm
Tumor Length ([2]; Day 4, 5 mg/kg): 6.09 mm and 6.4 mm and 7.29 mm and 6.97 mm and 6.34 mm and 6.38 mm
Tumor Volume ([2]; Day 4, 5 mg/kg): 113.97 mm^3 and 113.45 mm^3 and 97.29 mm^3 and 124.83 mm^3 and 104.42 mm^3 and 77.89 mm^3
Tumor Width ([2]; Day 4, 5 mg/kg): 5.98 mm and 5.82 mm and 5.05 mm and 5.85 mm and 5.61 mm and 4.83 mm
Tumor Length ([2]; Day 7, 5 mg/kg): 7.28 mm and 7.86 mm and 8.67 mm and 6.99 mm and 8.27 mm
Tumor Volume ([2]; Day 7, 5 mg/kg): 180.86 mm^3 and 117.78 mm^3 and 198.12 mm^3 and 140.77 mm^3 and 173.66 mm^3 and 136.21 mm^3
Tumor Width ([2]; Day 7, 5 mg/kg): 6.89 mm and 5.56 mm and 6.94 mm and 5.57 mm and 5.61 mm
Tumor Length ([2]; Day 11, 5 mg/kg): 8.11 mm and 8.29 mm and 6.98 mm and 8.22 mm and 7.53 mm and 8.23 mm
Tumor Width ([2]; Day 11, 5 mg/kg): 5.81 mm and 7.35 mm and 5.72 mm and 8.04 mm and 7.15 mm and 7.08 mm
Tumor Length ([2]; Day 14, 5 mg/kg): 8.23 mm and 8.98 mm and 8.47 mm and 7.26 mm and 9.3 mm and 9.49 mm
Tumor Volume ([2]; Day 14, 5 mg/kg): 222.04 mm^3 and 307.58 mm^3 and 251.33 mm^3 and 190.45 mm^3 and 320.90 mm^3 and 371.60 mm^3
Tumor Width ([2]; Day 14, 5 mg/kg): 7.18 mm and 8.09 mm and 7.53 mm and 7.08 mm and 8.12 mm and 8.65 mm
Tumor Length ([2]; Day 18, 5 mg/kg): 8.68 mm and 10.39 mm and 9.13 mm and 9.05 mm and 9.45 mm and 9.95 mm
Tumor Volume ([2]; Day 18, 5 mg/kg): 324.35 mm^3 and 536.16 mm^3 and 383.59 mm^3 and 344.61 mm^3 and 334.97 mm^3 and 363.06 mm^3
Tumor Width ([2]; Day 18, 5 mg/kg): 8.45 mm and 9.93 mm and 8.96 mm and 8.53 mm and 8.23 mm and 8.35 mm
Tumor Length ([2]; Day 21, 5 mg/kg): 10.54 mm and 10.95 mm and 9.73 mm and 10.89 mm and 10.09 mm and 10.17 mm
Tumor Volume ([2]; Day 21, 5 mg/kg): 450.77 mm^3 and 632.99 mm^3 and 424.46 mm^3 and 505.72 mm^3 and 463.61 mm^3 and 487.44 mm^3
Tumor Width ([2]; Day 21, 5 mg/kg): 9.04 mm and 10.51 mm and 9.13 mm and 9.42 mm and 9.37 mm and 9.57 mm
Tumor Length ([2]; Day 25, 5 mg/kg): 12.37 mm and 11.71 mm and 10.99 mm and 12.36 mm and 12.63 mm
Tumor Volume ([2]; Day 25, 5 mg/kg): 724.64 mm^3 and 746.92 mm^3 and 567.12 mm^3 and 525.64 mm^3 and 639.10 mm^3 and 698.50 mm^3
Tumor Width ([2]; Day 25, 5 mg/kg): 10.58 mm and 11.04 mm and 9.93 mm and 9.56 mm and 9.94 mm and 10.28 mm
Tumor Length ([2]; Day 28, 5 mg/kg): 11.25 mm and 11.92 mm and 12.46 mm and 12.52 mm and 12.24 mm and 12.94 mm
Tumor Volume ([2]; Day 28, 5 mg/kg): 728.02 mm^3 and 719.55 mm^3 and 840.02 mm^3 and 932.53 mm^3 and 835.40 mm^3 and 919.10 mm^3
Tumor Width ([2]; Day 28, 5 mg/kg): 11.12 mm and 10.74 mm and 11.35 mm and 11.93 mm and 11.42 mm and 11.65 mm
Tumor weight after 28 days ([2]; IgG4 (5 mg/kg), Ex. 2, per mouse 1-6, 5 mg/kg): 0.779 grams and 0.769 grams and 0.739 grams and 0.863 grams and 0.852 grams and 0.649 grams
tumor suppression rate ([2]; single anti-CD14-IgG4 5 mg/kg (Ex. 2), after 28 days): about 25%

Further lines, with some results ahead:

Koff [1]: 0.0026 s⁻¹
kon (1:1 binding) [1]: 1.29e+06 M⁻¹ s⁻¹
B1: MPDDAD003: D6DD3D014-derived antibody with PTM site removed; VL amino acid nos. 34, 35: TS (antibody, V domains shown)
VH: B2 VH
VL: B2 VL with D34T
affinity compared with the humanized antibody D6DD3D014 ([1]; Biacore, B294801 antigen): approximately equivalent to the affinity of the humanized antibody D6DD3D014
affinity compared with the murine antibody D6DD3D001 ([1]; Biacore, B294801 antigen): within three times less than the affinity of the murine antibody D6DD3D001

Koff [1]: 0.0046 s⁻¹
kon (1:1 binding) [1]: 775000 M⁻¹ s⁻¹
B3: MPDDAD004: D6DD3D014-derived antibody with PTM site removed; VL amino acid nos. 34, 35: NA (antibody, V domains shown)
VH: B2 VH
VL: B2 VL with D34N, S35A

Koff [1]: 0.00544 s⁻¹
kon (1:1 binding) [1]: 1.11e+06 M⁻¹ s⁻¹
B5: MPDDAD005: D6DD3D014-derived antibody with PTM site removed; VL amino acid nos. 34, 35: QS (antibody, V domains shown)
VH: B2 VH
VL: B2 VL with D34Q
